The results in this text go back to patent US20210054062A1.

Test [1] concerns the target human FAM19A5-Fc protein (human), Q7Z5A7. The test can be described thus: cell-based or functional assay.
Test [2] concerns the target Recombinant human FAM19A5 protein (His-tagged) (human) (UniProt Q7Z5A7). The test is described as follows: SPR, FAM19A5 immobilised on sensor chip, antibody as analyte, single cycle kinetics, 1:1 fit. A general note: In SPR one partner is held on a chip, and binding of the other changes the refractive index at the surface.
For test [3] the target is unchanged. The test is described as follows: SPR (Biacore): FAM19A5 protein immobilised on the sensor chip, antibody injected at 1.1 to 90 nM in single cycle kinetics mode, 1:1 binding fit.

Recombinant human FAM19A5 protein (His-tagged) (human), sequence (Q7Z5A7 44-132): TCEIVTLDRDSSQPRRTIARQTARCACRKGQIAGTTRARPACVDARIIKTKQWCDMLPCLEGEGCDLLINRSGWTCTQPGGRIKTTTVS
human FAM19A5-Fc protein (human), Q7Z5A7, sequence (Q7Z5A7 44-132): as above

B1: Reference anti-FAM19A5 antibody ("1-65") (antibody, V domains shown)
VH: AVTLDESGGGLQTPGGALSLVCKASGFTFSSYQMGWVRQAPGKGLEWVGVINKSGSDTSYGSAVKGRATISRDNGQSTVRLQLNNLRAEDTGTYFCAKGSASYITAATIDAWGHGTEVIVSS
VL: ALTQPSSVSANPGETVKITCSGGGSSGYGYGWYQQKSPSSAPLTVIYWNDKRPSDIPSRFSGSKSGSTHTLTITGVQAEDEAVYFCGNDDYSSDSGYVGVFGAGTTLTVL
As a reminder, the Kd is a measure of binding affinity in units of concentration. As usually defined, the koff is the first-order rate constant of dissociation. As a reminder, the kon is a measure of how fast the partners come together. Turning to B1, the amount of phagocytosis (uptake of pHrodo Green E. coli BioParticles by BV2 cells) compared to the control group (PBS alone), about 10 hours after BioParticles in test [1] came to 86%. Further, the Kd in test [2] stood at 0.345 nM. Moreover, in test [3], the koff was 0.000567 s⁻¹ and the kon turned out to be 1.64e+06 M⁻¹ s⁻¹.

B2: Anti-FAM19A5 antibody ("SS01-13-s5") (antibody, V domains shown)
VH: AVTLDESGGGLQTPGGALRLSCKASGFTFSSYQMGWVRQAPGKGLEWVSAINKSGSDTSYGSAVKGRATISRDNGQSTLYLQMNSLRAEDTAVYFCAKGSASYITAATIDAWGHGTEVIVSS
VL: ALTQPSSVSANPGETARITCSGGASSGYGYGWYQQKPSSAPLTVIYKDSERPSDIPSRFSGSSSGSTHTLTISGVQAEDEAVYFCGNDDYSSDSGYVGVFGAGTTLTVL
B2 registered an amount of phagocytosis (uptake of pHrodo Green E. coli BioParticles by BV2 cells) compared to the control group (PBS alone), about 10 hours after BioParticles in test [1] of 96%. The dissociation constant Kd in test [2] amounted to 2.2 nM. Further, in test [3], the koff is 0.000822 s⁻¹ and the kon is 373000 M⁻¹ s⁻¹.

B3: Anti-FAM19A5 antibody ("S5-SG") (antibody, V domains shown)
VH: AVTLDESGGGLQTPGGALRLSCKASGFTFSSYQMGWVRQAPGKGLEWVSAINKGGSDTSYGSAVKGRATISRDNGQSTLYLQMNSLRAEDTAVYFCAKGSASYITAATIDAWGHGTEVIVSS
VL: ALTQPSSVSANPGETARITCSGGASSGYGYGWYQQKPSSAPLTVIYKDSERPSDIPSRFSGSSSGSTHTLTISGVQAEDEAVYFCGNDDYSSDSGYVGVFGAGTTLTVL
In turn, B3 had an amount of phagocytosis (uptake of pHrodo Green E. coli BioParticles by BV2 cells) compared to the control group (PBS alone), about 10 hours after BioParticles in test [1] of 89%. Moreover, in test [2], the Kd worked out at 1.8 nM. In addition, in test [3], the koff stood at 0.00183 s⁻¹ and the kon was found to be 1.02e+06 M⁻¹ s⁻¹.
